Results published in the supplement of paper PMC10899765.

Legend:
Settings in all cases: 20 nM; 72 h
MCF10A [1] = assay: one-nucleolus phenotype percent effect (relative to siNT 0% and siNOL11 100%); higher = more cells with one nucleolus (ribosome biogenesis inhibition)
Description: (§1)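 After 72 h, cells were fixed and stained with Hoechst and anti-fibrillarin, and nucleoli per nucleus were counted with CellProfiler. Values are plate-adjusted percent effect for the one-nucleolus and 5+ nucleoli phenotypes, normalised to siNT (0%) and to the positive controls siNOL11 or siKIF11 (100%), as the mean of biological triplicates. Percent viability is the nuclei count relative to siNT.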

MCF10A [2] = assay: percent viability (nuclei count relative to siNT); higher = more viable cells
Description: as §1

MCF10A [3] = assay: 5+ nucleoli phenotype percent effect (relative to siNT 0% and siKIF11 100%); higher = more cells with five or more nucleoli
Description: as §1

## ACUAAAGGAUAUAGAAGGUUUU [hsa-miR-4509]
MCF10A [1]
  one-nucleolus phenotype percent effect: -25.3%
MCF10A [2]
  percent viability: 103%
MCF10A [3]
  5+ nucleoli phenotype percent effect: 5.5%

## GUGCAUUGUAGUUGCAUUGCA [hsa-miR-33a-5p]
MCF10A [1]
  one-nucleolus phenotype percent effect: -0.977%
MCF10A [2]
  percent viability: 46%
MCF10A [3]
  5+ nucleoli phenotype percent effect: -0.156%

## GGUGGGGGGUGUUGUUUU [hsa-miR-4472]
MCF10A [1]
  one-nucleolus phenotype percent effect: 9.55%
MCF10A [2]
  percent viability: 40%
MCF10A [3]
  5+ nucleoli phenotype percent effect: 11.6%

## GCAGCCCAGCUGAGGCCUCUG [hsa-miR-4690-3p]
MCF10A [1]
  one-nucleolus phenotype percent effect: -17.1%
MCF10A [2]
  percent viability: 119%
MCF10A [3]
  5+ nucleoli phenotype percent effect: 21.1%

## UCAGGCCAGGCACAGUGGCUCA [hsa-miR-1972]
MCF10A [1]
  one-nucleolus phenotype percent effect: -4.54%
MCF10A [2]
  percent viability: 30.6%
MCF10A [3]
  5+ nucleoli phenotype percent effect: 17.7%

## CUCACUGAACAAUGAAUGCAA [hsa-miR-181b-3p]
MCF10A [1]
  one-nucleolus phenotype percent effect: -19.6%
MCF10A [2]
  percent viability: 61.5%
MCF10A [3]
  5+ nucleoli phenotype percent effect: 22%

## UUGAGGAGACAUGGUGGGGGCC [hsa-miR-4689]
MCF10A [1]
  one-nucleolus phenotype percent effect: 12.3%
MCF10A [2]
  percent viability: 103%
MCF10A [3]
  5+ nucleoli phenotype percent effect: 2.8%

## AAAGGAAAGUGUAUCCUAAAAG [hsa-miR-651-3p]
MCF10A [1]
  one-nucleolus phenotype percent effect: -19.5%
MCF10A [2]
  percent viability: 139%
MCF10A [3]
  5+ nucleoli phenotype percent effect: 37%

## AACUGAACCAGGAGUGAGCUUCG [hsa-miR-4724-5p]
MCF10A [1]
  one-nucleolus phenotype percent effect: 6.7%
MCF10A [2]
  percent viability: 77.9%
MCF10A [3]
  5+ nucleoli phenotype percent effect: -1.37%

## GGGAGUCUACAGCAGGG [hsa-miR-4294]
MCF10A [1]
  one-nucleolus phenotype percent effect: 24%
MCF10A [2]
  percent viability: 37.7%
MCF10A [3]
  5+ nucleoli phenotype percent effect: -26.3%

## AAUCGUACAGGGUCAUCCACUU [hsa-miR-487b]
MCF10A [1]
  one-nucleolus phenotype percent effect: -10.7%
MCF10A [2]
  percent viability: 59.9%
MCF10A [3]
  5+ nucleoli phenotype percent effect: 24.3%

## UGCUUAAGUUGUACCAAGUAU [hsa-miR-4720-3p]
MCF10A [1]
  one-nucleolus phenotype percent effect: 7.73%
MCF10A [2]
  percent viability: 53.4%
MCF10A [3]
  5+ nucleoli phenotype percent effect: -20.7%

## GCUGAUGAUGAUGGUGCUGAAG [hsa-miR-4502]
MCF10A [1]
  one-nucleolus phenotype percent effect: -19.2%
MCF10A [2]
  percent viability: 85.3%
MCF10A [3]
  5+ nucleoli phenotype percent effect: 38.7%

## AUCUGCUCUCUUGUUCCCAG [hsa-miR-6828-3p]
MCF10A [1]
  one-nucleolus phenotype percent effect: 2.43%
MCF10A [2]
  percent viability: 43.4%
MCF10A [3]
  5+ nucleoli phenotype percent effect: 10.5%

## AGCCUUCCAGGAGAAAUGGAGA [hsa-miR-5581-5p]
MCF10A [1]
  one-nucleolus phenotype percent effect: 20.5%
MCF10A [2]
  percent viability: 14.3%
MCF10A [3]
  5+ nucleoli phenotype percent effect: -16.7%

## ACUCCAAGAAGAAUCUAGACAG [hsa-miR-5695]
MCF10A [1]
  one-nucleolus phenotype percent effect: -26.7%
MCF10A [2]
  percent viability: 183%
MCF10A [3]
  5+ nucleoli phenotype percent effect: 39.3%

## UGAGAACUGACAAAUGUGGUAGG [hsa-miR-7153-5p]
MCF10A [1]
  one-nucleolus phenotype percent effect: -18.9%
MCF10A [2]
  percent viability: 61.9%
MCF10A [3]
  5+ nucleoli phenotype percent effect: 14%

## UGUAGAGCAGGGAGCAGGAAGCU [hsa-miR-4732-5p]
MCF10A [1]
  one-nucleolus phenotype percent effect: 6.48%
MCF10A [2]
  percent viability: 23.8%
MCF10A [3]
  5+ nucleoli phenotype percent effect: -0.0062%

## AUCAAAUAAGGACUAGUCUGCA [hsa-miR-3671]
MCF10A [1]
  one-nucleolus phenotype percent effect: -10.1%
MCF10A [2]
  percent viability: 74.3%
MCF10A [3]
  5+ nucleoli phenotype percent effect: 14.8%

## ACUCAAACUGUGGGGGCACU [hsa-miR-371a-5p]
MCF10A [1]
  one-nucleolus phenotype percent effect: 3.21%
MCF10A [2]
  percent viability: 79.6%
MCF10A [3]
  5+ nucleoli phenotype percent effect: 15.8%
